Columns and labels:
[1] = target: T1, human αvβ5 expressed on BaF3 cells (stably transfected with human αv and β5 subunits) (human, UniProt P06756 31-1048; P18084 24-799); assay: FACS binding curves on αvβ5-BaF3 cells, 10,000 cells/experiment; monovalent Fab, not mAb
T1 construct: also called αvβ5-BaF3; BaF3-hu αvβ5
Method: (§1) This experiment was carried out to confirm the affinity of ALULA-H4/L2-IgG4.P(S228P)/IgG1(N297Q) for cell surface expressed αvβ5 stably expressed on murine BaF3 cells. Binding curves were generated using a lower number of cells to ensure that antibody was not simply titrating the receptors on the cell.

[2] = target: T2, human soluble αvβ5 protein (extracellular domains of human αv and β5 integrin subunits) (human, UniProt P06756 31-992; P18084 24-719); assay: ELISA, Fab blocking of 2 nM soluble αvβ5 binding to immobilized human plasma vitronectin
T2 construct: also called biotin-αvβ5; hsαvβ5
T2 sequence (P06756 31-992 limits assumed, chain 1 of 2): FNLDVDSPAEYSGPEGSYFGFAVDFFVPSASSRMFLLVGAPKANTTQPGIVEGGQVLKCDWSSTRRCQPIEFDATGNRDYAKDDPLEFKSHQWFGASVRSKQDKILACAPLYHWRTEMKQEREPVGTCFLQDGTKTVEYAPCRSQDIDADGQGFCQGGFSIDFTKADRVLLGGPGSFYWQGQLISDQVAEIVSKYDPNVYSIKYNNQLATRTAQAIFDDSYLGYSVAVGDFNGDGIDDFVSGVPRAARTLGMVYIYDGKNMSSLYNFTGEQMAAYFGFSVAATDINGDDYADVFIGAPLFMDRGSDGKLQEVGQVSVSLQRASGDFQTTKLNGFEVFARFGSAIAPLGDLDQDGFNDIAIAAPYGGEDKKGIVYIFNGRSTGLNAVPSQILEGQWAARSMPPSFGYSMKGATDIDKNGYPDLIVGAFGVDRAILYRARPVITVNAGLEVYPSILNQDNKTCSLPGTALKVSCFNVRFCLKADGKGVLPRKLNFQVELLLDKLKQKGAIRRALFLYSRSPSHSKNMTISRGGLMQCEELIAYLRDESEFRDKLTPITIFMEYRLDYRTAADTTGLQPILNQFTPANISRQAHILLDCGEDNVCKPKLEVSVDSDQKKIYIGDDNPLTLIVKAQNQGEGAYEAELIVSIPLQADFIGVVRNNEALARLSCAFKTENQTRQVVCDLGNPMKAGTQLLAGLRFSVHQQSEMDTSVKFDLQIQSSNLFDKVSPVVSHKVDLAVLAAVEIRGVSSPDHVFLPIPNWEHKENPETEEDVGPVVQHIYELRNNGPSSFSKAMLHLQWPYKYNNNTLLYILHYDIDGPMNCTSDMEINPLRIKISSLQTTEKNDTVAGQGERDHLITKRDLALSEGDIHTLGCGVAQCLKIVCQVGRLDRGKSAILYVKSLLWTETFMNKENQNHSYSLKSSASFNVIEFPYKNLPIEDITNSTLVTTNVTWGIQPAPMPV
T2 sequence (P18084 24-719 limits assumed, chain 2 of 2): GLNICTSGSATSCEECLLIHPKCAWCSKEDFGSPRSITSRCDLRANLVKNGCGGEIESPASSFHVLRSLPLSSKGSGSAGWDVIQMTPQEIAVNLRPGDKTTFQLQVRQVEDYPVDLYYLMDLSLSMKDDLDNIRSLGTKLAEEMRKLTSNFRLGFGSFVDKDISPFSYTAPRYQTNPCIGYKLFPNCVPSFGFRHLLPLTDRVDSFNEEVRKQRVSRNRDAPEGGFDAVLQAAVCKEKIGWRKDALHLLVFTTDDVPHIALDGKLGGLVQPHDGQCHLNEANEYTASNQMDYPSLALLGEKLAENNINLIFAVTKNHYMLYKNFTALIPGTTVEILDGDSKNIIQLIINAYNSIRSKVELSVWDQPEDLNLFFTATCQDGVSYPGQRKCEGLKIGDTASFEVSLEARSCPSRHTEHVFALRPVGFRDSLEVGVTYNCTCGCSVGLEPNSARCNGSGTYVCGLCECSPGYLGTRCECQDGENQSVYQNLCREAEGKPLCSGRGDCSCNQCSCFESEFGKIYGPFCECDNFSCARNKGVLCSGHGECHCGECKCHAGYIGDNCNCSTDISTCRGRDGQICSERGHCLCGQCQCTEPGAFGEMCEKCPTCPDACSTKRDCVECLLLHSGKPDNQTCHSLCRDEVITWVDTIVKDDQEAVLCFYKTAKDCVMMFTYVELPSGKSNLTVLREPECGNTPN
Method: Fab fragments of the four constructs of Example 6 were generated from the corresponding IgG1(N297Q) versions by digestion with papain. The ability of each Fab to block 2 nM soluble αvβ5 binding to immobilized human plasma vitronectin was determined by ELISA.

[3] = target: T2, human soluble αvβ5 protein …; assay: αvβ5-vitronectin blocking ELISA
Method: Vitronectin Inhibition ELISA: 96-well microtiter plates were coated with 5 μg/ml purified human plasma vitronectin diluted in PBS (50 μl/well) at 4° C. overnight. After the coating solution was removed, the plates were blocked with 300 μl/well of 1% BSA/TBS at 25° C. for 1 hr. The plate was washed with wash buffer (0.05% Tween-20 in TBS containing 1 mM CaCl₂ and 1 mM MgCl₂), and dilutions of humanized antibodies mixed with 1 nM soluble αvβ5 protein in TBS containing 1% BSA, 1 mM CaCl₂ and 1 mM MgCl₂ were added (50 μl/well) and incubated at 25° C. for 1 hr. The plate was washed 4 times with wash buffer in an automated plate washer and incubated sequentially with 50 μl/well of the anti-beta5 monoclonal antibody 15F11 (at 0.5 ug/mL) in for 1 hr at 25° C. in TBS containing 1% BSA, 1 mM CaCl₂ and 1 mM MgCl₂. After washing the plate 4 times with wash buffer, 100 μl/well of a 1:5000 dilution of a peroxidase-conjugated goat anti-mouse antibody in TBS containing 1% BSA, 1 mM CaCl₂ and 1 mM MgCl₂ were added and incubated for 1 hr at 25° C. Bound protein was detected using the TMB substrate and indicated by the absorbency measured at 450 nm.
(§2) Based on the results described above in Example 4, four humanized ALULA constructs: VH2/VL2, VH4/VL0, VH4/VL2, and VH5/VL2, were selected for further testing. These VH/VL constructs were expressed as fusion proteins with the hybrid, aglycosylated IgG4.P (S228P)/IgG1 (N297Q) domain, and human kappa light chain domain, and purified from the conditioned medium of stably transfected CHO cells. Each humanized ALULA construct was assessed for binding using competition ELISA with murine ALULA and by FACS using human αvβ5-transfected BaF3 cells. Each humanized ALULA construct was also assessed for blocking binding/adhesion to vitronectin by ELISA or cell adhesion assays using BaF3 cells stably transfected with human or cynomolgous monkey αvβ5. The humanized ALULA constructs were compared to a chimeric form of ALULA comprising the murine heavy and light chain variable domains fused to human IgG1 heavy chain and human kappa light chain domains. The four humanized ALULA constructs behaved similarly in the assays, with H4/L2 generally having similar or slightly higher affinity/blocking potency than the other constructs (see, Table 3).

[4] = target: T2, human soluble αvβ5 protein …; assay: ALULA competition ELISA on soluble human αvβ5
Method: Competition ELISA: A 96-well microtiter plate was coated with 50 μl/well of 5 μg/mL soluble human αvβ5 protein at 4° C. overnight. The plate was washed with wash buffer (0.05% Tween-20 in PBS) four times in an automated plate washer. 300 μl/well of 1% BSA in PBS was added and incubated for 1 hr at 25° C. to block nonspecific binding. The plate was washed as above, and dilutions of humanized antibodies mixed with 1 nM murine ALULA in PBS containing 1% BSA, were added (50 μl/well). The plate was incubated for 1 hr at 25° C., washed, and then incubated for 40 minutes with 100 μl/well of […] goat anti-mouse antibody. Bound antibody was detected using 3,3′,5,5′-tetramethylbenzidine (TMB). Binding was indicated by the absorbency measured at 450 nm.
as §2

[5] = target: T1, human αvβ5 expressed on BaF3 cells …; assay: FACS binding curves on αvβ5-BaF3 cells, 10,000 cells/experiment; mAb (bivalent IgG)
Method: as §1

[6] = target: cynomolgus monkey αvβ5 expressed on BaF3 cells (cynomolgus monkey, UniProt A0A2K5WCD3 31-1048; A0A2K5UEB4 24-799); assay: cell-based or functional assay
[7] = target: T1, human αvβ5 expressed on BaF3 cells …; assay: cell-based or functional assay
[8] = target: T1, human αvβ5 expressed on BaF3 cells …; assay: FACS on BaF3-hu αvβ5 cells
Method: FACS Binding Assay: Cells were washed one time in PBS, and then resuspended in FACS buffer (1×PBS, 1% BSA, 1 mM CaCl₂, and 1 mM MgCl₂). 1×10⁶ cells were then incubated on ice for 1 hr in FACS buffer containing the test antibody in a total volume of 50 μl. After incubation, the cells were washed two times with ice cold FACS buffer, resuspended in 50 μl of FACS buffer containing 3 μg/ml goat anti-mouse IgG AlexaFluor488 (Jackson ImmunoResearch), and incubated on ice for 30 min. The cells were then washed twice with ice cold FACS buffer and fixed in 1% PFA overnight. Cell aggregates were removed by filtering through 40 μm filter plates (Millipore) and binding of the labeled secondary antibody was monitored by flow cytometry using a FACS Calibur (BD Biosciences).
as §2

[9] = target: T2, human soluble αvβ5 protein …; assay: ELISA, purified hsαvβ5 coated at 2 µg/mL, anti-human IgG-HRP detection
Method: Purified hsαvβ5 protein was coated directly on a 96-well ELISA plate at 2 μg/mL, and H4/L2 antibody binding was detected using a horseradish peroxidase conjugated donkey anti-human IgG polyclonal antibody. In this format, the EC₅₀ of the H4/L2 antibody for αvβ5 was about 65 pM.

[10] = target: T1, human αvβ5 expressed on BaF3 cells …; assay: flow cytometry on BaF3 cells co-transfected with human αv and human β5
Method: The binding of the H4/L2 antibody (SEQ ID NOs.: 69 and 70) to αvβ5 expressed on the cell surface was determined using flow cytometry on BaF3 cells stably co-transfected with human αv and human β5 integrin subunits. BaF3 cells are a murine IL-3 dependent hematopoietic cell line of indeterminate origin. These cells endogenously express mouse alpha-V (as well as alpha-4, alpha-5, and beta-1 integrins) but no beta-5 or beta-6 integrin.
The H4/L2 antibody was added to cells in FACS Buffer (PBS, 1% BSA, 1 mM CaCl₂, 1 mM MgCl₂) for 30 minutes on ice. After washing, bound antibody was detected with an anti-human-Alexa Fluor® 488 secondary antibody. Cells fixed in 1% paraformaldehyde were collected on a FACS Calibur and mean fluorescence intensity was analyzed using FlowJo software.

T1 sequence (P06756 31-1048 limits assumed, chain 1 of 2): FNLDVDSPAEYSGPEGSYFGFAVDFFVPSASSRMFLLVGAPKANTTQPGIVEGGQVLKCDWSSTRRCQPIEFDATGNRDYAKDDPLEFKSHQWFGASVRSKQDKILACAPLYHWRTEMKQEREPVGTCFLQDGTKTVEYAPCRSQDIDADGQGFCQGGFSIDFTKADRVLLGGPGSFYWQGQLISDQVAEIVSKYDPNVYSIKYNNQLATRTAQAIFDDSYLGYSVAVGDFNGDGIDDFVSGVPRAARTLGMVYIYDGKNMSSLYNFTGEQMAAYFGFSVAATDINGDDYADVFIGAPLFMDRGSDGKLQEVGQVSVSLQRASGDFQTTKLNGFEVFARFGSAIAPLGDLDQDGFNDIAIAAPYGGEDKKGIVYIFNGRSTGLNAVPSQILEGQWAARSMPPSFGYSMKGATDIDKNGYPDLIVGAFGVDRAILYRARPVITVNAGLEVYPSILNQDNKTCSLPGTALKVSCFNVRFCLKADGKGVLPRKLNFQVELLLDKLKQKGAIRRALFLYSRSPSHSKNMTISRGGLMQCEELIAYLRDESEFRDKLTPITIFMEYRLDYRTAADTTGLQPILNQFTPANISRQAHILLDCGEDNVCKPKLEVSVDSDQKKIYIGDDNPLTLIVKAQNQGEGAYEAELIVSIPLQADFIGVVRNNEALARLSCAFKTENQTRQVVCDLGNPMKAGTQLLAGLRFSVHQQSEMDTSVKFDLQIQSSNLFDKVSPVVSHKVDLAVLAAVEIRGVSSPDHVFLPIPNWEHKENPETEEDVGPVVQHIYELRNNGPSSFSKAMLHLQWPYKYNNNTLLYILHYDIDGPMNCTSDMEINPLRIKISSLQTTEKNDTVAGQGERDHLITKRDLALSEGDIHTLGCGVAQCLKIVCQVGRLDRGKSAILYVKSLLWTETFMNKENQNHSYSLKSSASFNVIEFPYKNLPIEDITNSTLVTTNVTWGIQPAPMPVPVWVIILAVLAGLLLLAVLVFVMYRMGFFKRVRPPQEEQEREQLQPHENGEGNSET
T1 sequence (P18084 24-799 limits assumed, chain 2 of 2): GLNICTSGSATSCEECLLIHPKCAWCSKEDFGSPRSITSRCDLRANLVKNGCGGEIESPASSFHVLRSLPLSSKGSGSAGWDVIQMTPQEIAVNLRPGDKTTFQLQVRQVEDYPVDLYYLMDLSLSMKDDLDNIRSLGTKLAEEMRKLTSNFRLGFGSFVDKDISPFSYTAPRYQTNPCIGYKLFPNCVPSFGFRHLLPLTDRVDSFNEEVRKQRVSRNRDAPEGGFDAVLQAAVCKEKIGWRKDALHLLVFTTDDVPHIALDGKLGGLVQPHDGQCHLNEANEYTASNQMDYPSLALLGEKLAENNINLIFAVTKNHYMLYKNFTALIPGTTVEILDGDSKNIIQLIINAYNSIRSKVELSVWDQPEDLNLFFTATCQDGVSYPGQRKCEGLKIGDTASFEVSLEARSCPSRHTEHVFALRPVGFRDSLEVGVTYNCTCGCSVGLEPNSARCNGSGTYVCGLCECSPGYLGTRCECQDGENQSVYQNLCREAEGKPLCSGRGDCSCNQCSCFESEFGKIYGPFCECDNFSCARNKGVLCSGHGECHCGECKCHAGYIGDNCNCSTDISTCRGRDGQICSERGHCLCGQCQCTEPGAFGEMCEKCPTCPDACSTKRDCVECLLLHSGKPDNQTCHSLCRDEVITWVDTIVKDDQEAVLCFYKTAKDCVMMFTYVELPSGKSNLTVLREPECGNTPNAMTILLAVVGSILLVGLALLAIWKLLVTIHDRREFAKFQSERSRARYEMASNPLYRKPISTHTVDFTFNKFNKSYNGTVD

Binder	Kd [1] [nM]	Fold change (IC50 against mouse chimeric ALULA) [2] [fold]	IC50 [2] [nM]	Fold chg. (IC50 against mouse chimeric ALULA) [3] [fold]	IC50 [3] [nM]	Fold chg. (IC50 against mouse chimeric ALULA) [4] [fold]	IC50 [4] [nM]	Kd [5] [nM]	BaF3-cyno αvβ5 Cell adhesion to vitronectin (IC50, nM) [6] [nM]	BaF3-cyno αvβ5 Cell adhesion to vitronectin, Fold chg. (against mouse chimeric ALULA) [6] [fold]	BaF3-hu αvβ5 Cell adhesion to vitronectin (IC50, nM) [7] [nM]	BaF3-hu αvβ5 Cell adhesion to vitronectin, Fold chg. (against mouse chimeric ALULA) [7] [fold]	EC50 [8] [nM]	Fold chg. (EC50 against mouse chimeric ALULA) [8] [fold]	EC50 [9] [nM]	EC50 [10] [nM]
ALULA-H4/L2-IgG4.P(S228P)/IgG1(N297Q) (antibody, V domains shown, Hybrid aglycosylated IgG4.P (S228P)/IgG1 (N297Q) heavy chain, human kappa light chain; also called VH4/VL2 (Agly-IgG4P/G1); H4/L2 antibody) VH: EVQVVQSGGGLVKPGESLRLSCKASGYTFTSYWMHWVKQAPGKGLEWVGAIYPGNSDTSYNQKFKGKFTISADTSPNTAYLQMNSLKTEDTAVYYCTTTTYGYDWFAYWGQGTLVTVSS VL: NIQMTQSPSSLSASVGDRVTMSCKSSQSVLYSSNQKNYLAWYQQKPGKSPKLLIYWASTRESGVPDRFTGSGSGTDFTLTISSLQPEDFATYYCHQYLSSLTFGQGTKLEIKR				0.7	1.06	1	1.84	0.08	0.32	0.5	0.1	0.6	2.92	0.6	~0.065	3
Mouse chimeric ALULA (murine ALULA variable domains fused to human IgG1 heavy chain and human kappa light chain domains) (antibody, V domains shown, also called chimeric form of ALULA; chimeric murine antibody) VH: EVQVQQSGTVLARPGASVKMSCKASGYTFTSYWMHWVKQRPGQGLEWIGAIYPGNSDTSYNQKFKGKAKLTAVTSPNTAYMELSSLTNEDSAVYYCTTTTYGYDWFAYWGQGTLVTVSA VL: NIMMTQSPSSLTVSAGEKVTMSCKSSQSVLYSSNQKNYLAWYQQKPGQSPKLLIYWASTRESGVPDRFTGSGSGTDFTLTISSVQAEDLAVYYCHQYLSSLTFGAGTKLELK					1.6		1.81		0.61		0.17		5.06			

Second part, the binder after the results:

Kd [1] [nM]	Fold change (IC50 against mouse chimeric ALULA) [2] [fold]	IC50 [2] [nM]	Fold chg. (IC50 against mouse chimeric ALULA) [3] [fold]	IC50 [3] [nM]	Fold chg. (IC50 against mouse chimeric ALULA) [4] [fold]	IC50 [4] [nM]	Kd [5] [nM]	BaF3-cyno αvβ5 Cell adhesion to vitronectin (IC50, nM) [6] [nM]	BaF3-cyno αvβ5 Cell adhesion to vitronectin, Fold chg. (against mouse chimeric ALULA) [6] [fold]	BaF3-hu αvβ5 Cell adhesion to vitronectin (IC50, nM) [7] [nM]	BaF3-hu αvβ5 Cell adhesion to vitronectin, Fold chg. (against mouse chimeric ALULA) [7] [fold]	EC50 [8] [nM]	Fold chg. (EC50 against mouse chimeric ALULA) [8] [fold]	EC50 [9] [nM]	EC50 [10] [nM]	Binder
0.42	0.9	4.3														VH4/VL2 Fab fragment (Fab, V domains shown, also called H4/L2 (Fab source); H4L2 hIgG1 Fab) VH: EVQVVQSGGGLVKPGESLRLSCKASGYTFTSYWMHWVKQAPGKGLEWVGAIYPGNSDTSYNQKFKGKFTISADTSPNTAYLQMNSLKTEDTAVYYCTTTTYGYDWFAYWGQGTLVTVSS VL: NIQMTQSPSSLSASVGDRVTMSCKSSQSVLYSSNQKNYLAWYQQKPGKSPKLLIYWASTRESGVPDRFTGSGSGTDFTLTISSLQPEDFATYYCHQYLSSLTFGQGTKLEIK
			0.8	1.24	1	1.85		0.63	1	0.29	1.7	2.9	0.5			VH5/VL2 Agly-IgG4.P (S228P)/IgG1 (N297Q) (antibody, V domains shown, also called VH5/VL2 (Agly-IgG4P/G1); H5/L2) VH: EVQVQQSGGGLVKPGGSLRLSCKASGYTFTSYWMHWVKQAPGKGLEWVGAIYPGNSDTSYNQKFKGKATLSAVTSPNTAYLQMNSLKTEDTAVYYCTTTTYGYDWFAYWGQGTLVTVSS VL: NIQMTQSPSSLSASVGDRVTMSCKSSQSVLYSSNQKNYLAWYQQKPGKSPKLLIYWASTRESGVPDRFTGSGSGTDFTLTISSLQPEDFATYYCHQYLSSLTFGQGTKLEIKR
			1.1	1.74	1.4	2.61		0.61	1	0.3	1.8	5.73	1.1			VH2/VL2 Agly-IgG4.P (S228P)/IgG1 (N297Q) (antibody, V domains shown, also called VH2/VL2 (Agly-IgG4P/G1); H2/L2) VH: EVQVVQSGGGLVKPGESLRLSCAASGYTFTSYWMHWVKQAPGKGLEWVGAIYPGNSDTSYNQKFKGKFTISADTSSNTAYLQMNSLKTEDTAVYYCTTTTYGYDWFAYWGQGTLVTVSS VL: NIQMTQSPSSLSASVGDRVTMSCKSSQSVLYSSNQKNYLAWYQQKPGKSPKLLIYWASTRESGVPDRFTGSGSGTDFTLTISSLQPEDFATYYCHQYLSSLTFGQGTKLEIKR
			1	1.52	1	1.84		0.43	0.7	0.09	0.5	2.52	0.5			VH4/VL0 Agly-IgG4.P (S228P)/IgG1 (N297Q) (antibody, V domains shown, also called VH4/VL0 (Agly-IgG4P/G1); H4/L0) VH: EVQVVQSGGGLVKPGESLRLSCKASGYTFTSYWMHWVKQAPGKGLEWVGAIYPGNSDTSYNQKFKGKFTISADTSPNTAYLQMNSLKTEDTAVYYCTTTTYGYDWFAYWGQGTLVTVSS VL: DIQMTQSPSSVSASVGDRVTITCKSSQSVLYSSNQKNYLAWYQQKPGKAPKLLIYWASTRESGVPSRFSGSGSGTDFTLTISSLQPEDFATYYCHQYLSSLTFGQGTKVEIKR

From US20170362324A1 (Biogen, published 2017)
